These results are taken from patent publication US20260116980A1 (BEONE MEDICINES I, published 2026).

Usually EC50 stands for the concentration that produces a half-maximal response. High values mean weaker potency, low ones greater potency. One may read the Kd as the concentration at which binding is half-saturated. Higher therefore signals a looser complex. Broadly, the koff is the first-order rate constant of dissociation. Read a low koff as slow dissociation. Broadly, the kon is the second-order rate constant of association.

For experiment [1], the target named is T1, human 4Ig-B7H3 on overexpressing cells (NK92mi/B7H3) (human, UniProt Q5ZPR3 29-534).
T1 construct: also called Human B7H3; native B7H3
T1 sequence: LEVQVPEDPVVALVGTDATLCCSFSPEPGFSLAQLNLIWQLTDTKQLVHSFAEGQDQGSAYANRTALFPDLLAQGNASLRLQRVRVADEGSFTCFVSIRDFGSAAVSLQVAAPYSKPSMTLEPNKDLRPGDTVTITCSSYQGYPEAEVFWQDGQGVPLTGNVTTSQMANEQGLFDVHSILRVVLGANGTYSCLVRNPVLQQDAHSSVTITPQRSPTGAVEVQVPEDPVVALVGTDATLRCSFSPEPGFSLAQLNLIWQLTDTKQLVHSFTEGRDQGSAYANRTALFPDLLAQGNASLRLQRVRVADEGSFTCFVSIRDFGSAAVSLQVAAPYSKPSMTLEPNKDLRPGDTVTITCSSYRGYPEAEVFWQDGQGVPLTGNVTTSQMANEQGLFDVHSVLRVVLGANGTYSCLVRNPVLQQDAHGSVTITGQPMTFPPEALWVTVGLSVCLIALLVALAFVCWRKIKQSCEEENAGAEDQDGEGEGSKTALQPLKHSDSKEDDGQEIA
The experiment is described as follows: FACS on human 4Ig-B7H3 overexpressing cells. On the procedure:
(§1) The binding affinity of anti-B7H3 mAb to human 4Ig-B7H3 and cyno B7H3 overexpressing cell lines were determined by FACS. Briefly, human or cyno B7H3 overexpressing cells were incubated with serially diluted purified antibodies, washed, and incubated with anti-mouse IgG secondary Ab conjugated to APC. After incubation and washing, fluorescence was measured by flow cytometry.

For another experiment, the target named is T2, human ECD-4Ig-B7H3-hFc (human, UniProt Q5ZPR3 29-466).
T2 construct: also called Human B7H3; human B7H3 antigen
T2 sequence: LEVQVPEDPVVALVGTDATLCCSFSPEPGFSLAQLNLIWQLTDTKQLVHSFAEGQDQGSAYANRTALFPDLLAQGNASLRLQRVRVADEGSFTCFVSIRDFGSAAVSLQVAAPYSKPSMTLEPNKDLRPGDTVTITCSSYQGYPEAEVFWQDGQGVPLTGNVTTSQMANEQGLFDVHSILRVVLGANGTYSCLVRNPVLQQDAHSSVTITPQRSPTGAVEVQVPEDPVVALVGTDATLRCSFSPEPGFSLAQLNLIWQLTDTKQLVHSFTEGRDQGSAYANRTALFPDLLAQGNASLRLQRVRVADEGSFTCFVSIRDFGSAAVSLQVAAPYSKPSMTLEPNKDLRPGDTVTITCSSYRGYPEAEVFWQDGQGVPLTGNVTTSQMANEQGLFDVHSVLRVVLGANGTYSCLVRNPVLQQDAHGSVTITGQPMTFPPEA
Description: SPR (BIAcore T-200), antibody captured by anti-mouse IgG Fc, antigen in flow, 1:1 Langmuir model. The text has this:
After immobilization, serial dilutions of the ectodomain of human or cyno B7H3 were passed over the chip. […] Thus, the light gray lines are serial dilutions of human B7H3 protein, and the dark gray lines are fitted curves corresponding to different human B7H3 concentrations. The dotted line is the highest concentration of B7H3 protein. The results were used to calculate the rates of association (Kon) and dissociation (Koff) for BGA-3295.
Briefly, anti-mouse IgG Fc antibody was immobilized on an activated CM5 biosensor chip (Cat. No. BR100530, GE Life Sciences). Purified antibodies were flowed over the chip surface and captured by anti-mouse IgG Fc antibody. Then a serial dilution of human ECD-4Ig-B7H3-hFc was flowed over the chip surface and changes in surface plasmon resonance signals were analyzed to calculate the association rates (kₒₙ) and dissociation rates (koff) by using the one-to-one Langmuir binding model (BIA Evaluation Software, GE Life Sciences). The equilibrium dissociation constant (KD) was calculated as the ratio koff/kₒₙ.
In general terms: In SPR one partner is held on a chip, and binding of the other changes the refractive index at the surface.

Experiment [2] addresses T3, cyno B7H3 on overexpressing cells (cyno, UniProt A0A7N9CYV2 29-534).
T3 sequence: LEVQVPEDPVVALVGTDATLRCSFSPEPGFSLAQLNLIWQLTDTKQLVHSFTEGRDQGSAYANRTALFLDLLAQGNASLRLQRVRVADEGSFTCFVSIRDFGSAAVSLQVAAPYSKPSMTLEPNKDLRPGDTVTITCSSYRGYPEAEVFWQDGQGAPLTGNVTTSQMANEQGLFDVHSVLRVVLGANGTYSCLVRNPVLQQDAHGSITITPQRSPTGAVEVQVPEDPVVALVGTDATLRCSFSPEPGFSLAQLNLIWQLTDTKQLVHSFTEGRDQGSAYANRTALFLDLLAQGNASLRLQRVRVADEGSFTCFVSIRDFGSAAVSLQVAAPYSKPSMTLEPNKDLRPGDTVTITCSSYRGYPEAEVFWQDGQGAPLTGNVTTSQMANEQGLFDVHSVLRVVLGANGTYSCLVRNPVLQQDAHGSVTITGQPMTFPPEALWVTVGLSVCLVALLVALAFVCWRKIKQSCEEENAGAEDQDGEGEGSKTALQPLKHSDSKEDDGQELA
Description: FACS on cyno B7H3 overexpressing cells. On the procedure: as §1

In experiment [3] the target is T1, human 4Ig-B7H3 on overexpressing cells …. The experiment is described as follows: FACS on live NK92mi/B7H3 cells, goat anti-human IgG detection, Test1. How it is done:
(§2) Goat anti-human IgG was used as the second antibody to detect antibody binding to the cell surface. EC₅₀ values for dose-dependent binding to human native B7H3 were determined by fitting the dose-response data to the four-parameter logistic model with GraphPad Prism.

Experiment [4] concerns the target T4, ECD of human 4Ig-B7H3 (Sinobiological, Cat: 11188-H08H) (human, UniProt Q5ZPR3 29-466).
T4 construct: Bought protein; also called recombinant B7H3
T4 sequence: T2 sequence
Description: SPR, antibody captured on anti-human Fc surface, Test 2. The text has this:
(§3) For affinity determination, antibodies were captured by an anti-human Fc surface, and used in the affinity-assay based on surface plasmon resonance (SPR) technology. The results of SPR-determined binding profiles of anti-B7H3 antibodies to the ECD of human 4Ig-B7H3 (Sinobiological, Cat: 11188-H08H) are summarized in Table 5.

Experiment [5] addresses T4, ECD of human 4Ig-B7H3 (Sinobiological, …). Description: SPR, antibody captured on anti-human Fc surface, Test 1.
Description: as §3

Experiment [6] has as its target T1, human 4Ig-B7H3 on overexpressing cells …. The experiment is described as follows: FACS on live NK92mi/B7H3 cells, goat anti-human IgG detection, Test2. How it is done: as §2

Changes are numbered by the printed parent chain. Names and notes keep the numbering of the source.

B1: BGA-3726 (purified anti-B7H3 mAb as used in Examples 2-4) (antibody, V domains shown)
VH: QVQLQESGPGLVKPSGTLSLTCAVSGGSISTSNWWNWVRQSPGKGLEWIGEIYPTGNTNYSPSLKSRVTISIDKSKNQFSLKLNSVTAADTAVYYCARGWNWFDPWGQGTLVTVSS
VL: EIVLTQSPGTLSLSPGERATLSCRTSQSINGILLAWYQQKPGQAPRLLIYGASSRATGIPDRFSGSGSGTDFTLSISRLEPEDFAVYYCQQYGSSPRTFGQGTKVEIK
notes: It was captured by anti-mouse IgG Fc in SPR and detected with anti-mouse IgG in FACS; The source mice make human variable and rat constant regions; also called BGA-3276
In experiment [1], B1 showed an EC50 of 1.91 nM. Moreover, in the experiment with human ECD-4Ig-B7H3-hFc, binding was characterised by a dissociation constant (Kd) of 0.0124 nM, the koff worked out at 4.49e-06 s⁻¹ and the kon worked out at 363000 M⁻¹ s⁻¹. Also, the EC50 in experiment [2] turned out to be 1.32 nM.

B2: BGA-3726 in human full-length format (human IgG1 variant IgG1mf / kappa) (antibody, V domains shown)
VH: B1 VH
VL: EIVLTQSPGTLSLSPGERATLSCRTSQSINGILLAWYQQKPGQAPRLLIYGASSRATGIPDRFSGSGSGTDFTLSISRLEPEDFAVYYCQQYGSSPRTFGQGTKVEIKR
Molecule B2 registered an EC50 in experiment [3] of 1.44 nM. Moreover, in experiment [4], the affinity, expressed as Kd, was 0.47 nM; the koff turned out to be 0.000207 s⁻¹; the kon turned out to be 442000 M⁻¹ s⁻¹. In experiment [5], this molecule showed a Kd of 0.424 nM, a koff of 0.000136 s⁻¹ and a kon of 321000 M⁻¹ s⁻¹.

B3: BGA-5488 (W34Y in HCDR1, W96Y and W98Y in HCDR3 and G30A in LCDR1 based on BGA-3726) (antibody, human IgG1, kappa, V domains shown)
VH: B1 VH with W34Y, W100Y, W102Y
VL: B2 VL with G31A
For B3, it took 1.45 nM to reach a half-maximal effect in experiment [6] (EC50). In experiment [4], this molecule displayed a Kd of 1.11 nM, a koff of 0.000326 s⁻¹ and a kon of 295000 M⁻¹ s⁻¹.

B4: BGA-4826 (BGA-3726 variant comprising W34Y in HCDR1) (antibody, human IgG1, kappa, V domains shown)
VH: B1 VH with W34Y
VL: B2 VL
As for B4, in experiment [5], the Kd came to 0.596 nM, the koff was 0.000171 s⁻¹ and the kon amounted to 288000 M⁻¹ s⁻¹.

B5: BGA-6938 (W34Y in HCDR1, W96Y in HCDR3 and G30A in LCDR1 based on BGA-3726), human IgG1 variant IgG1mf / kappa format (antibody, V domains shown)
VH: B1 VH with W34Y, W100Y
VL: B2 VL with G31A
Consider B5, for which, in experiment [6], it took 1.19 nM to reach a half-maximal effect (EC50). Moreover, in experiment [4], the Kd worked out at 0.443 nM, the koff stood at 0.000224 s⁻¹ and the kon was determined as 506000 M⁻¹ s⁻¹.

B6: BGA-4265 (BGA-3726 variant comprising G30A in LCDR1) (antibody, human IgG1, kappa, V domains shown)
VH: B1 VH
VL: B2 VL with G31A
For B6, in experiment [5], the Kd is 0.308 nM, the koff is 0.000128 s⁻¹ and the kon came to 414000 M⁻¹ s⁻¹.

B7: BGA-4269 (BGA-3726 variant comprising W98Y in HCDR3) (antibody, human IgG1, kappa, V domains shown)
VH: B1 VH with W102Y
VL: B2 VL
The molecule B7 displayed a kon in experiment [5] of 142000 M⁻¹ s⁻¹.

B8: BGA-4380 (BGA-3726 variant comprising N29Q in LCDR1) (antibody, human IgG1, kappa, V domains shown)
VH: B1 VH
VL: B2 VL with N30Q
In experiment [5], B8 showed a Kd of 0.635 nM, a koff of 0.000237 s⁻¹ and a kon of 373000 M⁻¹ s⁻¹.

B9: BGA-4498 (BGA-3726 variant comprising W96Y in HCDR3) (antibody, human IgG1, kappa, V domains shown)
VH: B1 VH with W100Y
VL: B2 VL
In experiment [5], B9 returned a Kd of 0.632 nM, a koff of 0.000199 s⁻¹ and a kon of 315000 M⁻¹ s⁻¹.
